In the assay the target is β-gal 4-domain fragment 1-725 (E. coli). The assay can be described thus: negative-stain EM.

The stoichiometry N is the number of molecules, sites or subunits per partner or assembly.

On to “β-gal 4-domain fragment 1-725 (domain or fragment)”, for which the stoichiometry N worked out at 4.
